Test results: article PMC3022805 (Journal of Biomedical Science, 2011)
Residue numbers refer to the chain shown, from its start. “And” between values parts separate entries of the source, which are not always exact repeats. Equal entries are not always repeated.

B1: apoE3-(72-166) (domain or fragment, human, UniProt P02649 90-184, looked up)
chain: KAYKSELEEQLTPVAEETRARLSKELQAAQARLGADMEDVCGRLVQYRGEVQAMLGQSTEELRVRLASHLRKLRKRLLRDADDLQKRLAVYQAGA
notes: 12 kDa; numbers count on: the mature protein of 299 amino acids; source: E. coli, purified
B2: apoE2-(72-166) (domain or fragment, human, UniProt P02649 90-184, looked up)
chain: B1 chain with R87C
notes: 12 kDa; numbers count on: the mature protein of 299 amino acids; cDNA amplified with the printed primers and ligated NdeI-XhoI into pET-29a(+); source: E. coli, purified
B3: apoE4-(72-166) (domain or fragment, human, UniProt P02649 90-184, looked up)
chain: B1 chain with C41R
notes: as for B1

Columns and labels:
[1] = biological target: the molecule itself; experiment: AUC; sedimentation velocity and sedimentation equilibrium fitted together to a global discrete species model (SEDPHAT); PBS pH 7.3 with 50 mM DHPC (micelles), 20°C
[2] = biological target: the molecule itself; experiment: AUC; sedimentation velocity (42,000 rpm, 0.5 mg/ml) and sedimentation equilibrium (10,000, 15,000, 20,000 rpm, 18 h each) fitted together to a global discrete species model (SEDPHAT); PBS pH 7.3, 20°C, no DHPC
[3] = biological target: the molecule itself; experiment: AUC; sedimentation velocity and sedimentation equilibrium fitted together to a global discrete species model (SEDPHAT); PBS pH 7.3 with 5 mM DHPC (submicellar), 20°C

Row | Protein | stoichiometry N [1] | stoichiometry N [2] | stoichiometry N [3]
1 | B1 | 2 | 6 | 4
2 | B2 | 4 | 2 and 6 | 
3 | B3 | 2 | 4 | 
